Data as given in patent US20200317806A1 (Hoffmann-La Roche, published 2020).

Molecular target: T1, murine EpCAM recombinant ectodomain (ECD), C-terminally His-Avi tagged (mouse)
T1 construct: also called mu EpCAM; EpCAM ECD
T1 chain: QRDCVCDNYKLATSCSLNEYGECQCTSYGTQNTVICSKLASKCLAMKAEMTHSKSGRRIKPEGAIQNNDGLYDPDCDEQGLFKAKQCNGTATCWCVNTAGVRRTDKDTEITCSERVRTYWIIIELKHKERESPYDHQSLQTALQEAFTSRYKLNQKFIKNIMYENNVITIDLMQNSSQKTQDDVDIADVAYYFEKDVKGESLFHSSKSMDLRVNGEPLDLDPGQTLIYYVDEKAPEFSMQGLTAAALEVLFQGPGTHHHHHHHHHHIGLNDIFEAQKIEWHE
Experiment: SPR (Biacore), antibody captured by anti-mouse IgG, EpCAM ECD as analyte, 37 C
Excerpt: This system is well established for the study of molecule interactions. It allows a continuous real-time monitoring of ligand/analyte bindings and thus the determination of association rate constants (ka), dissociation rate constants (kd), and equilibrium constants (KD) in various assay settings. SPR-technology is based on the measurement of the refractive index close to the surface of a gold coated biosensor chip. Changes in the refractive index indicate mass changes on the surface caused by the interaction of immobilized ligand with analyte injected in solution. If molecules bind to immobilized ligand on the surface the mass increases, in case of dissociation the mass decreases. For capturing, a goat anti-mouse IgG antibody was immobilized on the surface of a CM5 biosensorchip using amine-coupling chemistry according to the manufacturer's instructions. Flow cells were activated with a 1:1 mixture of 0.1 M N-hydroxysuccinimide and 0.4 M 1-ethyl-3-(3-dimethylaminopropyl)-carbodiimide hydrochloride at a flow rate of 5 μl/min at 25° C. Anti-mouse IgG antibody was injected in 10 mM sodium acetate, pH 4.5 at 10 μg/mL. A reference control flow cell was treated in the same way but with vehicle buffers only instead of the capturing antibody. Surfaces were blocked with an injection of 1 M ethanolamine/HCl pH 8.5. […] All interactions were performed at 37° C., using PBS-T as running buffer. The analytes were injected in a series of threefold increasing concentrations (EGFR ECD 4.12-1000 nM and EpCAM ECD 0.91-2000 nM in PBS-T+0.1% BSA) with a flow rate of 50 μl/min, 180 sec association, 1200 sec dissociation. The capture antibody was regenerated after each cycle with 10 mM glycine, pH 2.0 at a flow rate of 30 μl/min for 60 sec. Signals were detected at a rate of one signal per second.

Kd: 61 nM
koff: 0.013 s⁻¹
kon: 220000 M⁻¹ s⁻¹
B1: G8.8 (mouse EpCAM-specific antibody) (antibody, mouse IgG2a, kappa, V domains shown)
VH: EVQLAESGGGLVQPGRSMKLSCAASGFTFSNFPMAWVRQAPTKGLEWVATISTSGGSTYYRDSVKGRFTISRDNAKSTLYLQMNSLRSEDTATYYCTRTLYILRVFYFDYWGQGVMVTVSS
VL: DIQMTQSPASLSASLGETVSIECLASEGISNDLAWYQQKSGKSPQLLIYATSRLQDGVPSRFSGSGSGTRYSLKISGMQPEDEADYFCQQSYKYPWTFGGGTKLELKR
notes: Full heavy and light chains; also called EpCAM G8.8; anti-EpCAM mono-specific antibody
